The data set concerns the molecule itself. Kind of data set: SEC; protein eluted from concanavalin A-Sepharose; Superdex 200 PG 26/60, 2.4 mM Na2HPO4, 17.6 mM NaH2PO4 (pH 6.0), 150 mM NaCl, 0.02% Tween-20. Background: Size exclusion chromatography separates by hydrodynamic size, large species first.

By stoichiometry N is commonly meant a count of units in the complex or per binding partner.

B1: recombinant human α-galactosidase A (GLA) (enzyme, UniProt P06280 32-429, looked up)
chain: LDNGLARTPTMGWLHWERFMCNLDCQEEPDSCISEKLFMEMAELMVSEGWKDAGYEYLCIDDCWMAPQRDSEGRLQADPQRFPHGIRQLANYVHSKGLKLGIYADVGNKTCAGFPGSFGYYDIDAQTFADWGVDLLKFDGCYCDSLENLADGYKHMSLALNRTGRSIVYSCEWPLYMWPFQKPNYTEIRQYCNHWRNFADIDDSWKSIKSILDWTSFNQERIVDVAGPGGWNDPDMLVIGNFGLSWNQQVTQMALWAIMAAPLFMSNDLRHISPQAKALLQDKDVIAINQDPLGKQGYQLRQGDNFEVWERPLSGLAWAVAMINRQEIGGPRSYTIAVASLGKGVACNPACFITQLLPVKRKLGFYEWTSRLRSHINPTGTVLLQLENTMQMSLKDLL
notes: α-galactosidase A, human, UniProt P06280; The methods say fractions of the homodimer were pooled; also called rhGLA
In the case of B1, the “stoichiometry N” value was 2.

For the origin of these results see paper PMC10036536, “Optimizing human α-galactosidase for treatment of Fabry disease” (Scientific Reports, 2023).
